Assays:
Conditions in all cases: both partners purified
[1] = target: T1, H1N1 A/Solomon Islands/3/2006 HA protein (Influenza A virus A/Solomon …, strain); assay: cryo-EM structure
T1 construct: source: purified

[2] = target: A/New Caledonia/20/1999 (NC99) H1 hemagglutinin, recombinant (Influenza A virus A/New …, UniProt Q6WG00, strain, biotin on the AviTag); assay: ELISA
[3] = target: A/USSR/90/1977 H1 hemagglutinin, recombinant (Influenza A virus A/USSR/90/1977 (H1N1), UniProt P03453, strain, biotin on the AviTag); assay: ELISA
[4] = target: A/Brisbane/59/2007 H1 hemagglutinin, recombinant (Influenza A virus A/Brisbane/59/2007 …, UniProt D5F1Q8, strain, biotin on the AviTag); assay: ELISA

Binder | binding result [1] | binding result [2] | binding result [3] | binding result [4]
NI04359_d30_245 Fab (Fab, V domains shown, also called mAb NI04359_d30_245; source: Expi293F, co-transfected, Fab purified from supernatant (Ni-NTA agarose)) VH: EVQLVESGGGLFKPGGSLRLSCAASGFTFRNAWMSWVRQAPGKGLEWVGRIKSKADGGTTDYAASVKGRFTISRDDSKNTLYLHMNSLKTEDTAVYYCTTPPEIAVVAAAMRDYYYGLDVWGPGTTVTVSS VL: SYELTQPVSVSVALGQTARITCGGNNIGSKSLHWYQQKPGQAPVLVIYRDNNRPSGIPERFSGSNSGNTATLTISRAQAGDEADYYCQVWDSSTYVVFGGGTRLTVL | binds | – | – | –
NI01056_d30_604 Fab (Fab, V domains shown, also called mAb NI01056_d30_604; source: Expi293F, co-transfected, Fab purified from supernatant (Ni-NTA agarose)) VH: QVQLQESGPGLVKPSETLSLTCTVSGGSISNYYWTWIRQPPGKGLEWIGYMYDSGNTKYNSSLRSRLTMSLDTSKNQFSLKMRSVTAADTAVYYCARGGGVRNLLGLRFVSDYMDVWGKGTTVTVSS VL: DIQMTQSPSTLSASVGDRVTITCRASQSISSWLAWYQQKPGKAPHLLIYQASSLETGVPSRFSGSGSGTEFTLTISSLQPDDFATYYCQQYNTYSSTFGQGTQLQIK | binds | – | – | –
NI06063_d30_103 mAb (human IgG1) (antibody, V domains shown, IgG1; also called mAb d30_103) VH: QVHLVESGGGVVQPGRSLRLSCAASGFTFSNYGMHWVRQAPGKGLEWVAFISYDGSNEYYADSVKGRFTISRDYSKYTLYLQMNSLRAEDTAVYYCAKDGQWLVRGAFDFWGQGTMVTVSS VL: QSALTQPASVSGSPGQSITISCSGTGSDVGSSHLVSWYQHHPGKAPKLMIFEVSKRPLGVSNRFSGSKSGNTASLTISGLQTEDEADYYCCSYAGGRGVFGGGTKLTVL | – | no binding | no binding | no binding
